Assay results reported in publication PMC5671938, “Multimerin-2 is a ligand for group 14 family C-type lectins CLEC14A, CD93 and CD248 spanning the endothelial pericyte interface” (Oncogene, 2017).

Biological target: T1, recombinant CLEC14A extracellular domain with an Fc tag (CLEC14A-ECD-Fc) (human, UniProt Q86T13 22-397)
T1 construct: CLEC14A, human, extracellular domain; Human IgG Fc alone served as the control for the Fc tag; also called hCLEC14A-ECD-Fc; CLEC14A-Fc
T1 sequence (looked up): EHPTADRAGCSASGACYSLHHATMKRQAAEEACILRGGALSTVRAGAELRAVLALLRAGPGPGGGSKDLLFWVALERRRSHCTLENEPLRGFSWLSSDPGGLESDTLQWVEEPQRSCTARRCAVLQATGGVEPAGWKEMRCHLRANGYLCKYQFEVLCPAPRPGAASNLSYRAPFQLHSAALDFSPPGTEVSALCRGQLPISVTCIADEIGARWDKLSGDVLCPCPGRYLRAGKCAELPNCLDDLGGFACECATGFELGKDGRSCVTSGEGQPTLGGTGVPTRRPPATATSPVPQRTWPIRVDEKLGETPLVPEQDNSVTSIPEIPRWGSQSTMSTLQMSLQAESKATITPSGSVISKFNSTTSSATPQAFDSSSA
Test: flow cytometry on cells; blocking: hCLEC14A-ECD-Fc incubated with 2 x molar excess of MMRN2^495-674 or MMRN2^495-603 for 1 h at 4 °C, then used to stain the HUVEC surface; anti-hFc-FITC
Settings: both partners purified

B1: MMRN2^495-674 expressed and purified from E. coli (blocking experiments) (domain or fragment, human, UniProt Q9H8L6 495-674, looked up)
chain: QKLYLDLDVIREGQRDATRALEETQVSLDERRQLDGSSLQALQNAVDAVSLAVDAHKAEGERARAATSRLRSQVQALDDEVGALKAAAAEARHEVRQLHSAFAALLEDALRHEAVLAALFGEEVLEEMSEQTPGPLPLSYEQIRVALQDAASGLQEQALGWDELAARVTALEQASEPPRP
notes: codon optimized synthetic DNA in pET23a between NdeI and NotI; The fragment was made 'with His tag or avitag'; also called MMRN2 peptide; source: E. coli BL21-DE3 pLysS, purified (Nickel-NTA, size exclusion chromatography), endotoxin removed
  binding result: binds
